Test results reported in PMC3948749, “Engineering of Pyranose Dehydrogenase for Increased Oxygen Reactivity” (PLoS ONE, 2014).
Where a chain is given by its changes, count along the chain named. Numbers in names are those of the source.

B1: AmPDH (Agaricus meleagris pyranose dehydrogenase, pdh1) (Macropsalliota meleagris) (protein)
chain: AITYQHPDDLPSGVDYDFIVAGGGTAGLVVASRLSENSNWKVLVIEAGPSNKDAFVTRVPGLASTLGAGSPIDWNYTTIPQDGLDGRSLDYPRAKILGGCSTHNGMVYTRGSKDDWNSWAGIIGDQGLGWDSILPAIKKAEKFTQDFTDQSVKGHIDPSVHGFDGKLSVSAAYSNISFNDLLFETTKELNAEFPFKLDMNDGKPIGLGWTQYTIDNHAERSSSATSYLESTGDNVHVLVNTLVTRVLSASGNGTDFRKVEFAVDANSPKKQLEAKKEVIVAGGVIASPQILMNSGIGERKVLQAVGIDTLIDNPSVGKNLSDQGATSVMFDTTLPSTDFDVDAALTEWTNSHTGPLARGARLNHLTFVRLPDDKLNGQDPSSGKNSPHIEFQFAQITPQVPTLGVPKQAPLPAANSYRLLLQLAVVNLYSISRGSISLSDNNPFTYPLIDLNMFKEDIDIAILREGIRSAGRMFSSKAFKNSVNKFVYPPADATSDEDLDAFLRSSTFSYVHGVGTLSMSPKGASWGVVNPDFKVKGTSGLRVVDASVIPHAPAAHTQLPVYAFAEYASALIAKSYN
notes: monomeric glycoprotein about 90 kDa, 64 kDa deglycosylated
B2: AmPDH (Agaricus meleagris pyranose dehydrogenase, pdh1) (Macropsalliota meleagris; H128Y) (protein)
chain: B1 chain with H103Y
notes: as for B1

Substrate: O=C1C(Cl)=CC(=Nc2ccc(O)cc2)C=C1Cl
Test: steady-state kinetics, DCIP reduction
Assay type: biochemical, Macropsalliota meleagris
Settings: apparent, electron acceptor, 25 mM D-glucose as donor, pH 4, 30 °C
Description: steady-state kinetics, DCIP reduction on AmPDH (Agaricus meleagris pyranose dehydrogenase, pdh1)

Protein	Km [µM]	kcat [s⁻¹]	kcat/Km [M⁻¹ s⁻¹]
B1	140 ± 10	40.7 ± 4.1	291000
B2	20 ± 10	2.8 ± 0.5	140000
